B1: OR4K15 (parent)
chain: GUUAACGGUCAUAGGCCAUGGAAACUAGGAGCACCAUUUCGCUGCCAGUGAAGAAAUGAACAAAGAAAAUCUGGGCCAGGCAGGCAUCAAAAGAAAUAGUCUUGCGCUCAACCAGAAAGUCUGUAAUCAUUUUAAGGGUA

The variants in this data set derive from B1. As to the kind of experiment: self-cleavage, relative activity (ratio to wild type); higher = more cleavage; in vitro, sequencing; the parent is a self-cleaving ribozyme.
A30U U102C: the self-cleavage was 1.81.

For the variant U3C A126G, the self-cleavage came to 0.58.

Regarding A55G G83A, the self-cleavage stood at 0.71.

For the variant A54G G123A, the self-cleavage was determined as 1.14.

For G48A A82U, the self-cleavage stood at 0.12.

A59U A134U: the self-cleavage came to 1.92.

As for A92G A126U, the self-cleavage turned out to be 0.78.

G123A A135G: the self-cleavage was 2.16.

On to U87C A126G, for which the self-cleavage was found to be 0.82.

Take A55G U103A: the self-cleavage amounted to 0.46.

On to A52C G75U, for which the self-cleavage was determined as 0.33.

For the variant C34A U122C, the self-cleavage was determined as 0.77.

As for C45A, the self-cleavage came to 1.6.

Regarding U49C C121G, the self-cleavage was determined as 2.4.

With A27U A96G, the self-cleavage came out at 1.6.

As to A110C A114U, the self-cleavage came to 0.01.

As for A23G A30G, the self-cleavage was 1.1.

In the case of A91U U100C, the self-cleavage amounted to 2.82.

For A92G U139G, the self-cleavage came out at 1.3.

As to U72A A91G, the self-cleavage came to 0.19.

Consider A33G U130C, for which the self-cleavage was found to be 0.66.

With A5U A67G, the self-cleavage came to 1.6.

As for A91G U102C, the self-cleavage was determined as 1.94.

As for G73A A117G, the self-cleavage was 0.15.

As for U12A A89G, the self-cleavage turned out to be 1.57.

As to U26C A140G, the self-cleavage came out at 1.4.

For the variant A92G A94U, the self-cleavage came out at 2.13.

As to U19C A67U, the self-cleavage was determined as 1.67.

With G21A A30G, the self-cleavage is 1.51.

On to U9C U132C, for which the self-cleavage was found to be 1.45.

As for A23U A51C, the self-cleavage came to 1.55.

Regarding U19C A90U, the self-cleavage stood at 1.49.

For the variant U26C A36G, the self-cleavage worked out at 1.47.

Regarding A5C A66G, the self-cleavage turned out to be 2.49.

As for A94C A116C, the self-cleavage amounted to 0.25.

As to A36G A134U, the self-cleavage is 1.6.

As to U3A A64C, the self-cleavage worked out at 1.33.

On to C35U A51G, for which the self-cleavage is 1.06.

In the case of A47G A129G, the self-cleavage worked out at 0.64.

G79U G99A: the self-cleavage worked out at 0.03.

For the variant A60U A66G, the self-cleavage amounted to 1.63.

With A24G U131C, the self-cleavage was 1.17.

In the case of G31U A60G, the self-cleavage was 1.37.

Consider A98C U127C, for which the self-cleavage came to 1.94.

As to U97A U108A, the self-cleavage is 0.03.

With A55G A66G, the self-cleavage came out at 1.4.

On to A64G A90U, for which the self-cleavage amounted to 1.58.

As for A62G U130G, the self-cleavage turned out to be 1.06.

A18G U120A: the self-cleavage was determined as 2.34.

A64G A126G: the self-cleavage turned out to be 1.05.

As for A60G, the self-cleavage came out at 1.14.

With U12C A82U, the self-cleavage is 0.24.

C17U U38C: the self-cleavage amounted to 1.28.

For A62G U72C, the self-cleavage was 0.24.

In the case of A59U U131A, the self-cleavage came to 0.84.

For the variant A4U A63G, the self-cleavage stood at 0.87.

Consider U26C A54G, for which the self-cleavage came to 1.61.

A66U A140G: the self-cleavage is 2.51.

In the case of A36U A89G, the self-cleavage is 1.41.

For U12A A13G, the self-cleavage was determined as 1.28.

Consider U72C A78C, for which the self-cleavage worked out at 0.27.

As to G53A A118C, the self-cleavage is 0.99.

For U97C U131C, the self-cleavage is 0.72.

A63G C105U: the self-cleavage came out at 0.05.

Turning to A36U U72A, the self-cleavage was found to be 0.37.

Consider A82U A116G, for which the self-cleavage is 0.09.

On to A96G, for which the self-cleavage turned out to be 1.37.

With A114G U130C, the self-cleavage amounted to 0.38.

Take A23U U87C: the self-cleavage stood at 1.08.

Regarding G75U A126G, the self-cleavage was determined as 0.08.

For G48A A64U, the self-cleavage amounted to 1.63.

In the case of U43G A111G, the self-cleavage was determined as 0.03.

For A55U A64G, the self-cleavage was 1.76.

On to A11G A86U, for which the self-cleavage is 1.82.

Regarding U3A A36U, the self-cleavage came to 1.61.

G28A U57C: the self-cleavage came to 0.4.

Take A94G U122C: the self-cleavage turned out to be 1.21.

Regarding G15C A24G, the self-cleavage came out at 0.88.

Regarding A69G A95U, the self-cleavage worked out at 1.56.

As to C25A U38C, the self-cleavage came out at 1.05.

As for A22U A36G, the self-cleavage was determined as 1.48.

Turning to A51G U124G, the self-cleavage was found to be 1.05.

Turning to C45A A134G, the self-cleavage turned out to be 1.72.

With U97A A135G, the self-cleavage is 1.79.

For U130A U131C, the self-cleavage came to 1.75.

Consider U100A U122C, for which the self-cleavage is 0.28.

As for A24U A90G, the self-cleavage is 1.63.

Take A116G U139C: the self-cleavage was found to be 1.17.

As to A62G G84A, the self-cleavage is 1.73.

Consider U2C A52C, for which the self-cleavage stood at 1.25.

Take G21A A64U: the self-cleavage is 1.5.

Regarding A5G A94U, the self-cleavage amounted to 0.8.

With A55G A125G, the self-cleavage came out at 0.45.

On to C85G A86U, for which the self-cleavage turned out to be 0.31.

Consider A22U C25U, for which the self-cleavage worked out at 0.77.

Turning to A11G U122C, the self-cleavage was determined as 1.

For U43C A126G, the self-cleavage came out at 0.73.

Take A5G A55G: the self-cleavage came to 1.15.

Take A60G C112A: the self-cleavage was 0.02.

Take A67U G106C: the self-cleavage came out at 0.01.

Turning to A22U A95G, the self-cleavage amounted to 0.94.

Turning to A30U G115A, the self-cleavage amounted to 0.22.

For the variant A23C A62G, the self-cleavage turned out to be 0.57.

As to U72A U133G, the self-cleavage was 0.36.

On to A24C A69G, for which the self-cleavage is 1.24.

Consider A98G U131C, for which the self-cleavage is 0.49.

C61U A126G: the self-cleavage turned out to be 0.55.

Take A110C A125G: the self-cleavage was determined as 0.11.

Take U72A A92U: the self-cleavage worked out at 0.13.

With A55U A67G, the self-cleavage came out at 1.12.

Regarding U12C A51U, the self-cleavage is 1.38.

U39A U120C: the self-cleavage was 0.95.

U2G A91G: the self-cleavage came out at 1.16.

Consider A111G U124G, for which the self-cleavage worked out at 0.01.

Take A13G C77U: the self-cleavage came out at 1.1.

Regarding A68C U131C, the self-cleavage came out at 0.94.

Consider U26C A51C, for which the self-cleavage was 1.55.

Consider A24G C81U, for which the self-cleavage was 0.64.

Turning to A30G U130G, the self-cleavage worked out at 1.09.

As to U38A U131C, the self-cleavage came to 1.16.

Turning to A22U A69U, the self-cleavage amounted to 2.67.

Consider U57C A118U, for which the self-cleavage came to 0.37.

A78C U122C: the self-cleavage is 0.1.

Regarding A94G A135G, the self-cleavage amounted to 0.43.

For the variant A30G U133C, the self-cleavage stood at 1.8.

With A86U, the self-cleavage turned out to be 1.77.

Regarding A52G A86U, the self-cleavage was 1.33.

With C112A A140G, the self-cleavage was 0.02.

For the variant C16U U102C, the self-cleavage was found to be 2.01.

Turning to A62G A91G, the self-cleavage is 1.12.

Take A59C A140U: the self-cleavage was found to be 1.46.

On to A98U U127C, for which the self-cleavage was 1.98.

In the case of A13U A86G, the self-cleavage worked out at 1.62.

As to A5U A140G, the self-cleavage was found to be 1.09.

For the variant A24C A125U, the self-cleavage was found to be 2.07.

As for A30G C40A, the self-cleavage stood at 1.42.

With U43C C71A, the self-cleavage amounted to 0.32.

On to A90G U127C, for which the self-cleavage was 0.13.

A11G A82U: the self-cleavage stood at 0.2.

Regarding C25U A59G, the self-cleavage came out at 1.24.

For C35U A92U, the self-cleavage stood at 1.37.

Consider A114U U132C, for which the self-cleavage turned out to be 0.02.

As to A27G A114G, the self-cleavage stood at 0.27.

Take U57C A94G: the self-cleavage was found to be 1.62.

As for A24G A68U, the self-cleavage amounted to 0.87.

On to A22U U97C, for which the self-cleavage turned out to be 0.69.

As for A23U G93A, the self-cleavage was determined as 1.85.

In the case of A117U A118G, the self-cleavage was determined as 0.97.

As to A69U A134G, the self-cleavage amounted to 1.82.

As for A67C U87C, the self-cleavage came out at 1.79.

With G21A A67G, the self-cleavage turned out to be 1.78.

Turning to A90G A135G, the self-cleavage was determined as 0.51.

Consider A67U U120C, for which the self-cleavage worked out at 1.13.

For the variant U87A U100C, the self-cleavage stood at 2.28.

In the case of A30G U37G, the self-cleavage was 1.08.

In the case of A30C A56G, the self-cleavage was determined as 1.27.

On to G7A A86G, for which the self-cleavage came out at 0.94.

As to A68G U120C, the self-cleavage amounted to 0.65.

Take U38C G93A: the self-cleavage turned out to be 2.41.

For A11U U72A, the self-cleavage was determined as 0.53.

As for U49A A63G, the self-cleavage is 1.46.

A60G G99U: the self-cleavage was 0.38.

Consider A111G U120C, for which the self-cleavage was 0.01.

Take A27G G53C: the self-cleavage was 1.59.

For the variant C10U U124A, the self-cleavage came to 0.36.

For U9G U72A, the self-cleavage amounted to 0.19.

With C35U A95G, the self-cleavage was found to be 1.74.

The values above are taken from the RNAGym collection of RNA variant scans (doi:10.7554/elife.90254).
